In publication PMC10121161, “Delivering a toxic metal to the active site of urease” (Science Advances, 2023):

B1: HpUreF(R179A/Y183D)/HpUreD(E140A)-Strep complex, in the cryo-EM sample (complex)
chain 1: MDKGKSVKSTEKSVGMPPKTPKTDNNAHVDNEFLILQVNDAVFPIGSYTHSFGLETYIQQKKVTNKESALEYLKANLSSQFLYTEMLSLKLTYESALQQDLKKILGVEEVIMLSTSPMELRLANQKLGNRFIKTLQAMNELDMGEFFNAYAQKTKDPTHATSYGVFAASLGIELKKALAHYLDAQTSNMVINCVKSVPLSQNDGQKILLSLQSPFNQLIEKTLELDESHLCTASVQNDIKAMQHESLYSRLYMS
chain 2: MNTYAQESKLRLKTKIGADGRCVIEDNFFTPPFKLMAPFYPKDDLAEIMLLAVSPGMMRGDAQDVQLNIGPNCKLRITSQSFEKIHNTEDGFASRDMHIVVGENAFLDFAPFPLIPFENAHFKGNTTISLRSSSQLLYSAIIVAGRVARNELFKFNRLHTKISILQDEKPIYYDNTILDPKTTDLNNMCMFDGYTHYLNLVLVNCPIELSGVRECIEESEGVDGAVSETASSHLCVKALAKGSEPLLHLREKIARLVTQTTTQKV
notes: Helicobacter pylori urease accessory protein HpUreF; Helicobacter pylori urease accessory protein HpUreD (encoded by ureH); one copy of HpUreF and one of HpUreD per urease catalytic unit; also called HpUreFD
B2: HpUreD(E140A) with C-terminal Strep-tag II, in the cryo-EM sample (natural protein)
chain: MNTYAQESKLRLKTKIGADGRCVIEDNFFTPPFKLMAPFYPKDDLAEIMLLAVSPGMMRGDAQDVQLNIGPNCKLRITSQSFEKIHNTEDGFASRDMHIVVGENAFLDFAPFPLIPFENAHFKGNTTISLRSSSQLLYSAIIVAGRVARNELFKFNRLHTKISILQDEKPIYYDNTILDPKTTDLNNMCMFDGYTHYLNLVLVNCPIELSGVRECIEESEGVDGAVSETASSHLCVKALAKGSEPLLHLREKIARLVTQTTTQKV
notes: Helicobacter pylori urease accessory protein HpUreD (encoded by ureH); also called UreH
B3: HpUreF(R179A/Y183D), in the cryo-EM sample (natural protein)
chain: MDKGKSVKSTEKSVGMPPKTPKTDNNAHVDNEFLILQVNDAVFPIGSYTHSFGLETYIQQKKVTNKESALEYLKANLSSQFLYTEMLSLKLTYESALQQDLKKILGVEEVIMLSTSPMELRLANQKLGNRFIKTLQAMNELDMGEFFNAYAQKTKDPTHATSYGVFAASLGIELKKALAHYLDAQTSNMVINCVKSVPLSQNDGQKILLSLQSPFNQLIEKTLELDESHLCTASVQNDIKAMQHESLYSRLYMS
notes: Helicobacter pylori urease accessory protein HpUreF; everywhere else R179A/Y183D
B4: HpUreA (H. pylori urease subunit, fusion of the γ and β domains), in the cryo-EM sample (natural protein)
chain: MKLTPKELDKLMLHYAGELAKKRKEKGIKLNYVEAVALISAHIMEEARAGKKTAAELMQEGRTLLKPDDVMDGVASMIHEVGIEAMFPDGTKLVTVHTPIEANGKLVPGELFLKNEDITINEGKKAVSVKVKNVGDRPVQIGSHFHFFEVNRCLDFDREKTFGKRLDIASGTAVRFEPGEEKSVELIDIGGNRRIFGFNALVDRQADNESKKIALHRAKERGFHGAKSDDNYVKTIKE
notes: Helicobacter pylori urease subunit HpUreA (γ and β domains)

Tests used:
Test in all cases: cryo-EM structure; HpUreFD/urease complex coexpressed in E. coli, purified by Strep-Tactin XT and Superose-6 SEC in 50 mM Hepes, 200 mM NaCl, 0.5 mM TCEP (pH 7.5); 0.5 mg/ml on grids; tetrahedral symmetry; 2.3 Å
Settings in all cases: both partners purified
[1] = target: T1, H. pylori urease (HpUreAB), in the cryo-EM sample (Helicobacter pylori, UniProt P14916 1-238; P69996 1-569)
T1 construct: Helicobacter pylori urease subunit HpUreA (γ and β domains); Helicobacter pylori urease subunit HpUreB (α domain); dodecamer of HpUreAB catalytic units (four trimers); copies: 12 + 12
T1 sequence (P69996 whole entry, one chain of several): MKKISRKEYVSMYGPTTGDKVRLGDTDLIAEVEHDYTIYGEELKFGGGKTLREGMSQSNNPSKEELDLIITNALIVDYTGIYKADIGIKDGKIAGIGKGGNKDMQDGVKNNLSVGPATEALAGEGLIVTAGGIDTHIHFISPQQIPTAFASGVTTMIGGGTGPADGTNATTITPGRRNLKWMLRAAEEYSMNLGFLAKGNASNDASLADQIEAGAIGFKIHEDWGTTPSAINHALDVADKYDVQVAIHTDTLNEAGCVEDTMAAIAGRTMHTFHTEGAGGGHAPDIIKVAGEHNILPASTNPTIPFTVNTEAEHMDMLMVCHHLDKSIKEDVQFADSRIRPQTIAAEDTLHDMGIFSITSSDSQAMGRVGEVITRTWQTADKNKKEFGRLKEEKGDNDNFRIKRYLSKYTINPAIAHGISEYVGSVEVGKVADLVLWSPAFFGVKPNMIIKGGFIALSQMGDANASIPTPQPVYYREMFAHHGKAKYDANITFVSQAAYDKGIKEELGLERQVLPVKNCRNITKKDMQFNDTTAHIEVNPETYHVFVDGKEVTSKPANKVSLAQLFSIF

[2] = target: T2, HpUreB (H. pylori urease subunit, α domain), in the cryo-EM sample (Helicobacter pylori, UniProt P69996 1-569)
T2 construct: Helicobacter pylori urease subunit HpUreB (α domain)
T2 sequence (P69996 whole entry): as the sequence (P69996 whole entry, one chain of several) above

[3] = target: B2

Row | Binder | binding result [1] | binding result [2] | binding result [3]
1 | B1 | binds | – | –
2 | B2 | – | binds | –
3 | B3 | – | – | binds
4 | B4 | – | binds | binds
